Tests used:
[1] = target: T1, TLX ligand-binding domain (UniProt Q9Y466 155-385); assay: BLI
[2] = target: T1, TLX ligand-binding domain; assay: AlphaScreen or HTRF

T1 sequence (Q9Y466 155-385): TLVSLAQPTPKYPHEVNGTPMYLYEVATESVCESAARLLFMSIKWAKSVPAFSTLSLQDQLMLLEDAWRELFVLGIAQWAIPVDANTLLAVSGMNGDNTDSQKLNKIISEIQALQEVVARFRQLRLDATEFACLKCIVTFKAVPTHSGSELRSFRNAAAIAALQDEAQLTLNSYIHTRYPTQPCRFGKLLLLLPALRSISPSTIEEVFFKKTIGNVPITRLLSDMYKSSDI

Kd [1] [µM]	EC50 [2] [µM]	Molecule
14.2		atrophin corepressor peptide
	1.3	untagged atrophin peptide
	3.3	receptor-interaction domain from NCOA3 (domain or fragment, UniProt Q9Y6Q9 621-821, looked up) LLQLLTCSSDDRGHSSLTNSPLDSSCKESSVSVTSPSGVSSSTSGGVSSTSNMHGSLLQEKHRILHKLLQNGNSPAEVAKITAEATGKDTSSITSCGDGNVVKQEQLSPKKKENNALLRYLLDRDDPSDALSKELQPQVEGVDNKMSQCTSSTIPSSSQEKDPKIKTETSEEGSGDLDNLDAILGDLTSSDFYNNSISSNG

Source: doi:10.1101/2020.10.28.359810 (bioRxiv, 2020)
